Test results from patent US20220040297A1 (Chugai, published 2022).

B1: GLS3000 N30G (antibody, name in Kabat numbering, V domains shown)
VH: QVQLVESGGGVVQPGRSLRLSCAASGFTFSNAWMHWVRQAPGKGLEWVAQIKAKSNNYATYYAESVKGRFTISRDDSKNSLYLQMNSLKTEDTAVYYCRYVHYGAYYGVDAWGQGTTVTVSS
VL: DIVMTQSPLSLPVTPGEPASISCRSSQSLVHSNRGTYLHWYQQKPGQAPRLLIYKVSNRFSGVPDRFSGSGSGTDFTLKISRVEAEDVGVYYCGQGTQVPYTFGQGTKLEIK
notes: one-arm format as m2
B2: GLS3000 N53G (antibody, name in Kabat numbering, V domains shown)
VH: QVQLVESGGGVVQPGRSLRLSCAASGFTFSNAWMHWVRQAPGKGLEWVAQIKAKSNNYATYYAESVKGRFTISRDDSKNSLYLQMNSLKTEDTAVYYCRYVHYGAYYGVDAWGQGTTVTVSS
VL: DIVMTQSPLSLPVTPGEPASISCRSSQSLVHSNRNTYLHWYQQKPGQAPRLLIYKVSGRFSGVPDRFSGSGSGTDFTLKISRVEAEDVGVYYCGQGTQVPYTFGQGTKLEIK
notes: one-arm format as m2
B3: GLS3000 N30H (antibody, name in Kabat numbering, V domains shown)
VH: QVQLVESGGGVVQPGRSLRLSCAASGFTFSNAWMHWVRQAPGKGLEWVAQIKAKSNNYATYYAESVKGRFTISRDDSKNSLYLQMNSLKTEDTAVYYCRYVHYGAYYGVDAWGQGTTVTVSS
VL: DIVMTQSPLSLPVTPGEPASISCRSSQSLVHSNRHTYLHWYQQKPGQAPRLLIYKVSNRFSGVPDRFSGSGSGTDFTLKISRVEAEDVGVYYCGQGTQVPYTFGQGTKLEIK
notes: one-arm format as m2
B4: GLS3000 N30M (antibody, name in Kabat numbering, V domains shown)
VH: QVQLVESGGGVVQPGRSLRLSCAASGFTFSNAWMHWVRQAPGKGLEWVAQIKAKSNNYATYYAESVKGRFTISRDDSKNSLYLQMNSLKTEDTAVYYCRYVHYGAYYGVDAWGQGTTVTVSS
VL: DIVMTQSPLSLPVTPGEPASISCRSSQSLVHSNRMTYLHWYQQKPGQAPRLLIYKVSNRFSGVPDRFSGSGSGTDFTLKISRVEAEDVGVYYCGQGTQVPYTFGQGTKLEIK
notes: one-arm format as m2
B5: GLS3000 N30T (antibody, name in Kabat numbering, V domains shown)
VH: QVQLVESGGGVVQPGRSLRLSCAASGFTFSNAWMHWVRQAPGKGLEWVAQIKAKSNNYATYYAESVKGRFTISRDDSKNSLYLQMNSLKTEDTAVYYCRYVHYGAYYGVDAWGQGTTVTVSS
VL: DIVMTQSPLSLPVTPGEPASISCRSSQSLVHSNRTTYLHWYQQKPGQAPRLLIYKVSNRFSGVPDRFSGSGSGTDFTLKISRVEAEDVGVYYCGQGTQVPYTFGQGTKLEIK
notes: one-arm format as m2
B6: GLS3000 N53H (antibody, name in Kabat numbering, V domains shown)
VH: QVQLVESGGGVVQPGRSLRLSCAASGFTFSNAWMHWVRQAPGKGLEWVAQIKAKSNNYATYYAESVKGRFTISRDDSKNSLYLQMNSLKTEDTAVYYCRYVHYGAYYGVDAWGQGTTVTVSS
VL: DIVMTQSPLSLPVTPGEPASISCRSSQSLVHSNRNTYLHWYQQKPGQAPRLLIYKVSHRFSGVPDRFSGSGSGTDFTLKISRVEAEDVGVYYCGQGTQVPYTFGQGTKLEIK
notes: one-arm format as m2
B7: GLS3000 N30I (antibody, name in Kabat numbering, V domains shown)
VH: QVQLVESGGGVVQPGRSLRLSCAASGFTFSNAWMHWVRQAPGKGLEWVAQIKAKSNNYATYYAESVKGRFTISRDDSKNSLYLQMNSLKTEDTAVYYCRYVHYGAYYGVDAWGQGTTVTVSS
VL: DIVMTQSPLSLPVTPGEPASISCRSSQSLVHSNRITYLHWYQQKPGQAPRLLIYKVSNRFSGVPDRFSGSGSGTDFTLKISRVEAEDVGVYYCGQGTQVPYTFGQGTKLEIK
notes: one-arm format as m2
B8: GLS3000 N53A (antibody, name in Kabat numbering, V domains shown)
VH: QVQLVESGGGVVQPGRSLRLSCAASGFTFSNAWMHWVRQAPGKGLEWVAQIKAKSNNYATYYAESVKGRFTISRDDSKNSLYLQMNSLKTEDTAVYYCRYVHYGAYYGVDAWGQGTTVTVSS
VL: DIVMTQSPLSLPVTPGEPASISCRSSQSLVHSNRNTYLHWYQQKPGQAPRLLIYKVSARFSGVPDRFSGSGSGTDFTLKISRVEAEDVGVYYCGQGTQVPYTFGQGTKLEIK
notes: one-arm format as m2
B9: GLS3000 N30K (antibody, name in Kabat numbering, V domains shown)
VH: QVQLVESGGGVVQPGRSLRLSCAASGFTFSNAWMHWVRQAPGKGLEWVAQIKAKSNNYATYYAESVKGRFTISRDDSKNSLYLQMNSLKTEDTAVYYCRYVHYGAYYGVDAWGQGTTVTVSS
VL: DIVMTQSPLSLPVTPGEPASISCRSSQSLVHSNRKTYLHWYQQKPGQAPRLLIYKVSNRFSGVPDRFSGSGSGTDFTLKISRVEAEDVGVYYCGQGTQVPYTFGQGTKLEIK
notes: one-arm format as m2
B10: GLS3000 N30V (antibody, name in Kabat numbering, V domains shown)
VH: QVQLVESGGGVVQPGRSLRLSCAASGFTFSNAWMHWVRQAPGKGLEWVAQIKAKSNNYATYYAESVKGRFTISRDDSKNSLYLQMNSLKTEDTAVYYCRYVHYGAYYGVDAWGQGTTVTVSS
VL: DIVMTQSPLSLPVTPGEPASISCRSSQSLVHSNRVTYLHWYQQKPGQAPRLLIYKVSNRFSGVPDRFSGSGSGTDFTLKISRVEAEDVGVYYCGQGTQVPYTFGQGTKLEIK
notes: one-arm format as m2
B11: GLS3000 N30Y (antibody, name in Kabat numbering, V domains shown)
VH: QVQLVESGGGVVQPGRSLRLSCAASGFTFSNAWMHWVRQAPGKGLEWVAQIKAKSNNYATYYAESVKGRFTISRDDSKNSLYLQMNSLKTEDTAVYYCRYVHYGAYYGVDAWGQGTTVTVSS
VL: DIVMTQSPLSLPVTPGEPASISCRSSQSLVHSNRYTYLHWYQQKPGQAPRLLIYKVSNRFSGVPDRFSGSGSGTDFTLKISRVEAEDVGVYYCGQGTQVPYTFGQGTKLEIK
notes: one-arm format as m2
B12: GLS3000 N30W (antibody, name in Kabat numbering, V domains shown)
VH: QVQLVESGGGVVQPGRSLRLSCAASGFTFSNAWMHWVRQAPGKGLEWVAQIKAKSNNYATYYAESVKGRFTISRDDSKNSLYLQMNSLKTEDTAVYYCRYVHYGAYYGVDAWGQGTTVTVSS
VL: DIVMTQSPLSLPVTPGEPASISCRSSQSLVHSNRWTYLHWYQQKPGQAPRLLIYKVSNRFSGVPDRFSGSGSGTDFTLKISRVEAEDVGVYYCGQGTQVPYTFGQGTKLEIK
notes: one-arm format as m2
B13: GLS3000 N30Q (antibody, name in Kabat numbering, V domains shown)
VH: QVQLVESGGGVVQPGRSLRLSCAASGFTFSNAWMHWVRQAPGKGLEWVAQIKAKSNNYATYYAESVKGRFTISRDDSKNSLYLQMNSLKTEDTAVYYCRYVHYGAYYGVDAWGQGTTVTVSS
VL: DIVMTQSPLSLPVTPGEPASISCRSSQSLVHSNRQTYLHWYQQKPGQAPRLLIYKVSNRFSGVPDRFSGSGSGTDFTLKISRVEAEDVGVYYCGQGTQVPYTFGQGTKLEIK
notes: one-arm format as m2
B14: GLS3000 N30L (antibody, name in Kabat numbering, V domains shown)
VH: QVQLVESGGGVVQPGRSLRLSCAASGFTFSNAWMHWVRQAPGKGLEWVAQIKAKSNNYATYYAESVKGRFTISRDDSKNSLYLQMNSLKTEDTAVYYCRYVHYGAYYGVDAWGQGTTVTVSS
VL: DIVMTQSPLSLPVTPGEPASISCRSSQSLVHSNRLTYLHWYQQKPGQAPRLLIYKVSNRFSGVPDRFSGSGSGTDFTLKISRVEAEDVGVYYCGQGTQVPYTFGQGTKLEIK
notes: one-arm format as m2
B15: GLS3000 N53F (antibody, name in Kabat numbering, V domains shown)
VH: QVQLVESGGGVVQPGRSLRLSCAASGFTFSNAWMHWVRQAPGKGLEWVAQIKAKSNNYATYYAESVKGRFTISRDDSKNSLYLQMNSLKTEDTAVYYCRYVHYGAYYGVDAWGQGTTVTVSS
VL: DIVMTQSPLSLPVTPGEPASISCRSSQSLVHSNRNTYLHWYQQKPGQAPRLLIYKVSFRFSGVPDRFSGSGSGTDFTLKISRVEAEDVGVYYCGQGTQVPYTFGQGTKLEIK
notes: one-arm format as m2
B16: GLS3000 N53D (antibody, name in Kabat numbering, V domains shown)
VH: QVQLVESGGGVVQPGRSLRLSCAASGFTFSNAWMHWVRQAPGKGLEWVAQIKAKSNNYATYYAESVKGRFTISRDDSKNSLYLQMNSLKTEDTAVYYCRYVHYGAYYGVDAWGQGTTVTVSS
VL: DIVMTQSPLSLPVTPGEPASISCRSSQSLVHSNRNTYLHWYQQKPGQAPRLLIYKVSDRFSGVPDRFSGSGSGTDFTLKISRVEAEDVGVYYCGQGTQVPYTFGQGTKLEIK
notes: one-arm format as m2
B17: GLS3000 N53E (antibody, name in Kabat numbering, V domains shown)
VH: QVQLVESGGGVVQPGRSLRLSCAASGFTFSNAWMHWVRQAPGKGLEWVAQIKAKSNNYATYYAESVKGRFTISRDDSKNSLYLQMNSLKTEDTAVYYCRYVHYGAYYGVDAWGQGTTVTVSS
VL: DIVMTQSPLSLPVTPGEPASISCRSSQSLVHSNRNTYLHWYQQKPGQAPRLLIYKVSERFSGVPDRFSGSGSGTDFTLKISRVEAEDVGVYYCGQGTQVPYTFGQGTKLEIK
notes: one-arm format as m2
B18: GLS3000 N53I (antibody, name in Kabat numbering, V domains shown)
VH: QVQLVESGGGVVQPGRSLRLSCAASGFTFSNAWMHWVRQAPGKGLEWVAQIKAKSNNYATYYAESVKGRFTISRDDSKNSLYLQMNSLKTEDTAVYYCRYVHYGAYYGVDAWGQGTTVTVSS
VL: DIVMTQSPLSLPVTPGEPASISCRSSQSLVHSNRNTYLHWYQQKPGQAPRLLIYKVSIRFSGVPDRFSGSGSGTDFTLKISRVEAEDVGVYYCGQGTQVPYTFGQGTKLEIK
notes: one-arm format as m2
B19: GLS3000 N30S (antibody, name in Kabat numbering, V domains shown)
VH: QVQLVESGGGVVQPGRSLRLSCAASGFTFSNAWMHWVRQAPGKGLEWVAQIKAKSNNYATYYAESVKGRFTISRDDSKNSLYLQMNSLKTEDTAVYYCRYVHYGAYYGVDAWGQGTTVTVSS
VL: DIVMTQSPLSLPVTPGEPASISCRSSQSLVHSNRSTYLHWYQQKPGQAPRLLIYKVSNRFSGVPDRFSGSGSGTDFTLKISRVEAEDVGVYYCGQGTQVPYTFGQGTKLEIK
notes: one-arm format as m2
B20: GLS3000 N30R (antibody, name in Kabat numbering, V domains shown)
VH: QVQLVESGGGVVQPGRSLRLSCAASGFTFSNAWMHWVRQAPGKGLEWVAQIKAKSNNYATYYAESVKGRFTISRDDSKNSLYLQMNSLKTEDTAVYYCRYVHYGAYYGVDAWGQGTTVTVSS
VL: DIVMTQSPLSLPVTPGEPASISCRSSQSLVHSNRRTYLHWYQQKPGQAPRLLIYKVSNRFSGVPDRFSGSGSGTDFTLKISRVEAEDVGVYYCGQGTQVPYTFGQGTKLEIK
notes: one-arm format as m2
B21: GLS3000 N30P (antibody, name in Kabat numbering, V domains shown)
VH: QVQLVESGGGVVQPGRSLRLSCAASGFTFSNAWMHWVRQAPGKGLEWVAQIKAKSNNYATYYAESVKGRFTISRDDSKNSLYLQMNSLKTEDTAVYYCRYVHYGAYYGVDAWGQGTTVTVSS
VL: DIVMTQSPLSLPVTPGEPASISCRSSQSLVHSNRPTYLHWYQQKPGQAPRLLIYKVSNRFSGVPDRFSGSGSGTDFTLKISRVEAEDVGVYYCGQGTQVPYTFGQGTKLEIK
notes: one-arm format as m2

Each binder was assayed against CD3ε homodimer protein (human, UniProt P07766 23-126, limits assumed) (assay: SPR, immobilized CD3ε homodimer;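 further: biacore T200 surface plasmon resonance at 25 °C, antibody variants flowed as analytes over amine-coupled CD3ε homodimer on a CM4 chip, variant binding amount divided by that of GLS3000 antibody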).
Chain of CD3ε homodimer protein (P07766 23-126 limits assumed): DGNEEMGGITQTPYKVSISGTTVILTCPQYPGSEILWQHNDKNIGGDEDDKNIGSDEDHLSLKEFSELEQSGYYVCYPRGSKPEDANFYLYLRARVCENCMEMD
B1 was tested, and the “ratio of amounts bound (vs GLS3000)” value was 0.47.
For B2, the “ratio of amounts bound (vs GLS3000)” value was 0.76.
B3 was tested, and the “ratio of amounts bound (vs GLS3000)” value was 0.98.
In the case of B4, the “ratio of amounts bound (vs GLS3000)” value is reported as 0.8.
In the case of B5, the “ratio of amounts bound (vs GLS3000)” value is reported as 0.29.
For B6, the “ratio of amounts bound (vs GLS3000)” value was 1.18.
B7 was tested, and the “ratio of amounts bound (vs GLS3000)” value was 0.61.
In the case of B8, the “ratio of amounts bound (vs GLS3000)” value is reported as 0.61.
B9 was tested, and the “ratio of amounts bound (vs GLS3000)” value was 1.65.
B10 was tested, and the “ratio of amounts bound (vs GLS3000)” value was 0.61.
B11 was tested, and the “ratio of amounts bound (vs GLS3000)” value was 1.04.
In the case of B12, the “ratio of amounts bound (vs GLS3000)” value is reported as 0.99.
In the case of B13, the “ratio of amounts bound (vs GLS3000)” value is reported as 0.87.
For B14, the “ratio of amounts bound (vs GLS3000)” value was 0.7.
For B15, the “ratio of amounts bound (vs GLS3000)” value was 0.69.
B16 was tested, and the “ratio of amounts bound (vs GLS3000)” value was 0.34.
With B17 the “ratio of amounts bound (vs GLS3000)” value was 0.54.
B18 was tested, and the “ratio of amounts bound (vs GLS3000)” value was 0.5.
For B19, the “ratio of amounts bound (vs GLS3000)” value was 0.29.
With B20 the “ratio of amounts bound (vs GLS3000)” value was 1.86.
For B21, the “ratio of amounts bound (vs GLS3000)” value was 0.31.
